{"source": "paper PMC11862925", "key": {"[1]": {"molecular_target": "SARS-CoV-2 RBD (residues 319–541), Wuhan-Hu-1 (SARS-CoV-2) (UniProt P0DTC2)", "experiment": "BLI"}, "ACE2-COMP (human | rat)": {"molecular_target": "ACE2-COMP (human | rat) (UniProt Q9BYF1)", "experiment": "negative stain electron microscopy"}}, "data": [{"substance": "ACE2-COMP (from UniProt Q9BYF1 19-615; P35444 29-73)", "values": [{"measurement": "Kd", "setting": "[1]", "value": "< 0.025", "unit": "nM"}, {"measurement": "percent of bound ACE2 still attached after more than 8 h of dissociation", "setting": "[1]", "value": 90, "unit": "%"}, {"measurement": "stoichiometry N", "setting": "ACE2-COMP (human | rat)", "value": 5}]}]}
